Measured values from the DeepSol protein solubility set.

Assay: soluble on expression in E. coli; label from the status in PepcDB or PDB records

| Sequence | soluble on expression in E. coli |
| --- | --- |
| MSLSSVKDFPKIKAIRSFIIGGVGSGGDYHNVKGGHWLIDSDISTPASKWEQYKKSRTSWGINVLGSFLVEIEATDGTVGFATGFGGPPACWLVHQHFERFLIGADPRNTNLLFEQMYRASMFYGRKGLPIAVISVIDLALWDLLGKVRNEPVYRLIGGATKERLDFYCTGPEPTAAKAMGFWGGKVPLPFCPDDGHEGLRKNVEFLRKHREAVGPDFPIMVDCYMSLNVSYTIELVKACLDLNINWWEECLSPDDTDGFALIKRAHPTVKFTTGEHEYSRYGFRKLVEGRNLDIIQPDVMWLGGLTELLKVAALAAAYDVPVVPHASGPYSYHFQISQPNTPFQEYLANSPDGKSVLPVFGDLFIDEPIPTKGYLTTADLDKPGFGLTINPAARAKLIPSDYLFKVPEIPQNLSTGKEIKSNEQPDKPNGTLDSLAAKVESLTTSTSSEGHHHHHH | soluble |
| MEKQVRVRYAPSPTGHLHIGNARTALFNYLFARHQDGKFIIRIEDTDVKRNVAGGEESQLKYLKWLGMDWDEGVDVGGEFGPYRQTERLDIYKKLYEDLLERGLAYKCYMTEEELEAEREGQIARGETPRYAGNHRDLTEAQVKEFEAEGRIPSIRFRVPADRDYTFKDIVKDEVAFHSNDFGDFVIVKKDGIPTYNFAVAVDDHLMEITHVLRGDDHISNTPKQMMIYEAFGWDIPQFGHMTLIVNESRKKLSKRDESIIQFIEQYKELGYLPEAIFNFIALLGWSPVGEEEIFSQEEFIKMFDAARLSKSPALFDSQKLKWMNNQYMKKQDLDTVVELSLPHLVKAGRIGETLSEQEQAWIRDVIALYHEQMSFGAEIVELSEMFFKDHVDYEEEGQEVLKGEQVPEVLRAFAGQVEALEAMEPAAIKAAIKAVQKETGHKGKNLFMPIRVATTGQTHGPELPNAIALLGKEKVLNRLQKVIG | soluble |
| GMAQRSILVGQIWHEGHSFNPILTREKDFLFLRGEAVLEEARASSTALSGIVKTAEALGYRCVPSISARARPGGAIEQKVFDNIVDEFVQAARMQDFDAICLDLHGATLAEHTLDTEGYLLSRLREVVGNDIMISLALDLHAYLTPQMVEQATIITSFRTTPHADIEETGVRAMTLLDSLSNETRPPRAIYSLIPFLTRGNDETWSGPLAEIGAAADRWRARSDVVDLSIFNVHPFLDVPGYGQVVLAYDNGSGAAIDACRDLSDMLWKARDEFQEQLMSVDKALEIARTSRQLLALGDQGDRVMGAGPGDSPEIARVALEHFPGLKVAVPVYDPQAVRTAREAGENATVRMAVGGAFTHSVAPLERDWTVRKLCRARFTNIGPYMAGTEADFGDAAVLTCDAVTVIVTTMAPNVHDPAFYEAVGVPLASQQAVVARAANHYKLSFADIARTITVDTPGLTAFKPHQFPFTQARPFYPLDIVQWSFAPLECNKVG | soluble |
| MTEQKNKTSLIEFPCTFPLKVMGAVHPEFEQAVLDTVRLHAPDTQAHHITTRPSSKGNYTGATVQVKVENQEQLDNIYRALTSHELVKVVL | not soluble |
| MKEKVVSLAQDLIRRPSISPNDEGCQQIIAERLEKLGFQIEWMPFNDTLNLWAKHGTSEPVIAFAGHTDVVPTGDENQWSSPPFSAEIIDGMLYGRGAADMKGSLAAMIVAAEEYVKANPNHKGTIALLITSDEEATAKDGTIHVVETLMARDEKITYCMVGEPSSAKNLGDVVKNGRRGSITGNLYIQGIQGHVAYPHLAENPIHKAALFLQELTTYQWDKGNEFFPPTSLQIANIHAGTGSNNVIPAELYIQFNLRYCTEVTDEIIKQKVAEMLEKHNLKYRIEWNLSGKPFLTKPGKLLDSITSAIEETIGITPKAETGGGTSDGRFIALMGAEVVEFGPLNSTIHKVNECVSVEDLGKCGEIYHKMLVNLLDS | soluble |
| QVGLVRSKNVMIISPKYVAIQERLLRELDKGVTLVPIEGGYRNAKGMLLMTVIREKDFPRLKEAILEIDEEAFLISMSASEVYGKGFSLKKVADSYGVEATNANNLQ | not soluble |
| MVIATIQAEDHSQQSGTQQETTTDTGGGKNVGYIDAGDWLSYAGTPVNIPSSGSYLIEYRVASQNGGGSLTFEEAGGAPVHGTIAIPATGGWQTWTTIQHTVNLSAGSHQFGIKANAGGWNLNWIRINKTH | soluble |
| TSKFQWTSDFNIGFNRNRVTELYGGKPELKGLKRLEEGRDMDEWYLREWAGVDPANGSPLWYTTDENGKRTTTDSYNKADRVYCGSAAPKFTGGWMNSFSYKGFTLTANFDFVYGNLLYNQSRELLDSDGAYADYNSMKLKSGWKRWEKEGDIATHPKAINGGNKNSNKSSSRYLEKGNYFSLRNLSLGYSIPEKLCGKLGLQRVNVSCSADNLFTLTPFSGVSPQLSDSSTDGYAGTIYPLSRRIVFGLNVSF | not soluble |
| MQASQFSAQVLDWYDKYGRKTLPWQIDKTPYKVWLSEVMLQQTQVATVIPYFERFMARFPTVTDLANAPLDEVLHLWTGLGYYARARNLHKAAQQVATLHGGKFPETFEEVAALPGVGRSTAGAILSLSLGKHFPILDGNVARVLARCYAVSGWPGKKEVENKLWSLSEQVTPAVGVERFNQAMMDLGAMICTRSKPKCSLCPLQNGCIAAANNSWALYPGKKPK | soluble |
| MKYVFIENHRAEFSIKAMCRVLRVARSGWYVWLRRRHQMSLRQQFRLTCDAAVHKAFFEAKQRYGAPRLADELPEFNIKTIAASLRRQGLRAKASRKFSPVSYRAHGLPVLENLLEQDFSASGPKPEVGG | not soluble |
| MSLNVSHFFPETFVSLVKDMLTKTDGSTTKAIETLIGGKAEIEVFQQNNIDYDKLSPEEARLFQRDDDILFRTSSLKTGDDYLSYNYVYVKTNLLPPAIKQDLQEERLPIGKIIAELESRREIFSTGDCLGKHFTQLVPVSADRTYAFKKYQIISGRQCMFYVCELFDLEKICKLTAGEGHHHHHH | not soluble |
| MYFLTSSLPTTLMNVALTSWARAFAINVFPQPGGPYKRTPFGGSIPTSSKSSGCLRGSSMASLNSCSCFFKPPISLYVTFGLSMTSNPSTVGSLDVGSISTTAIVLLEHHHHHH | not soluble |
| MITLFQFPAAFNVPNASPYCLKLETWLRLAGLEYQVKVVSDPRKAPKGKLPYVRIEGEAIGDSEIVIRTLGERYGVTLDAGLDARGKGWARAITRLCDEHLYYLMLYFRWFDEDSWRVLKPVFFGSLPFGVRDAVAWAMRRKVRATLRAQGLGVHGRDELLAFARDDLDALDGLLGQVPYYGGEHPCSADAAAYGILANLIEATLDTPLSHVARGYPRLVAYCERMRERVWSELEHHHHHH | soluble |
| MTFELKYTDRSYLPDQFKAISGNPPVEWKVTNNLVEYPEALRYMQERVENILAQNAHEQVWLLEHPSLYTAGTSAKKKDLLTPHLFPVYEAGRGGEFTYHGPGQRIAYIMLDLKRRRQDIRAFISALEEWIIQMLAKFNIKGERREDRVGVWVQRHSCQSTQNSLYSEDKIAAIGIRVRKWVSFHGVSINVDPNLAHYSGIVPCGITNHGVTSFLDLGLPTKMHDIDIALKQSFEQIFGPIIDIS | not soluble |
| MTKPFAPASARNRDPILSVLQRYFADRQHVLEIGAGTGQHAVHFAAAMPWLRWQASDHPDHLPGMRQWLDEAALPNTPPPVALQAVLTPAPGLAPAPPLPPVQAGTPAGYDAIYSANTLHIMGWPQVQALFAGLPAVMAPQAVLVIYGPFNRDGEFTSDSNRDFDAMLRARDAASGIRDAAEVDALAAQVGLQLVDDVDMPANNRCRVWQRALEHHHHHH | soluble |
| MGSDKIHHHHHHMIYMIIHKFIIHVLDKNSDVPILNDFEGKVNQEVDGFFQKAIKRIAKDEDLRKGVFKDYNDNLIKNCCEQIIYDESTFLKNSKEIASYLFDVMKINAALESCDLAICLYTIKDEKSVAILKLDYKKLYTHSIEFVDDKFNIQMVSNEIGIPETLRQKQGALISLSGINDEFHLRLLDKDAEKEGSESKFVTEFLNAKKIDDDKYKTKVFKNTAENWITNALSNDIKQAEDVRSILNYTLKEKHEVDINDFVDNSIKDDELKDSFKEHMEEKGLDESFSIDKKWVEKKLKKRSIKTDNGFDIKGNLTDFEDPMKYTVKQNQDGTIDIIIKNVTFYEEK | not soluble |
| MGSDKIHHHHHHMTKPLINLVHANGFPAGSYKTFLQEFDNDFRTIAHNQFGHNVLYPIHNNWQHLVTELVEFIKKQDEKVICVGHSFGGVISFIAACQHPELFRGLVMLDPPVVTGAFSHLLSFIKRTPYIDKLSPAGKAKTRQNQWPENTNLVDYFSQKTLFKNFDSRCLQDYASSSVVLRNKRLELSFSPAVEADIFRHLPTNLVKYKNKLTVPAKLIYGEKTQIFPIKHFVRFAKLNDIELMTLPNGGHMFPLEQPENTANMVKQIIKDW | not soluble |
| MGSDKIHHHHHHMTKHMTMKTPPIVSRQEWDAAREKMLVKEKATLRAKDALAAERRRMPWMEVDKAYVFEGPNGKASLLDLFEGRRQLIVYRAFFEPGVYGWPDHACRGCSLGADQVGHLAHLNARNTTLAYASRAPQADIVRLKARMGWEMPWYTITDSFDKDFGVDEWHGHNVFIHDGDRVFRTYLINSRGDEQMGTVWSYLDATPLGRQEIWEDSPEGYPQTPLYSWWNWHDNYEAGADKKWAEVAAAGEAAFRDKGE | not soluble |
| SSNAKIDQLSSDVQTLNAKVDQASNDANAARSDAQAAKDDAARANQRLDNMATKYR | soluble |
| IGNGGAERGTRNTLDIRTVAHREADGSYRIKGEKFYSTGALFAHWVSIKALDDNGKTVMAFIERGTQGLRIVDDWSGFGQRTTASGTVLLDDVSVPAKQVVP | not soluble |
| MVMEYLVLEKRLKRLREVLEKRQKDLIVFADNVKNEHNFSAIVRTCDAVGVLYLYYYHAEGKKAKINEGITQGSHKWVFIEKVDNPVQKLLEFKNRGFQIVATWLSKESVNFREVDYTKPTVLVVGNELQGVSPEIVEIADKKIVIPMYGMAQSLNVSVATGIILYEAQRQREEKGMYSRPSLSEEEIQKILKKWAYEDVIKERKRTLSTS | soluble |
| GPGSMTTQNGVNYSQREVVHRMPDWVANRRASVNRGHVAPPLTADGMNPRKASFSGSNGEKQGAVYNNYTERVSSRSGGDRIFSFDNRSTSRRESGTNVSVRSLQPVAGRTAVTHTIRFRGARWSQALSNMSVALERAIKEDVAACCGISSERIGQMKMKFTDRLVVTFVLDHSHDPSEESRFHNQLKVYNFWRTVALYPRK | soluble |
| HPIFQRDGDDLHCEVPVRISQAALGDIVRVATLDGEAEIRIPAETQSGKLFRLRGKGVRSVRSRTEGDLYCRIVVETPVNLTAEQRKLLEQFEMTFAGEDARK | not soluble |
| MGSDKIHHHHHHMSVPLRAVQLTEPSLFLQEHPEVQFVDLLISDMNGVVRGKRIERNSLPKVFEKGINLPASLFALDITGSTVESTGLGLDIGDADRICYPIPGTLSMEPWQKRPTAQLLMTMHELEGEPFFADPREVLRQVVARFTEMELTIVAAFELEFYLIDQENVNGRPQPPRSPISGKRPQSVQVYSIDDLDEYVECLQDIIDGARAQGIPADAIVAESAPAQFEVNLHHVADPMKACDYAVLLKRLIKNIAYDHEMDTTFMAKPYPGQAGNGLHVHISLLDKHGNNIFTSEDPEQNAALRHAIGGVLETLPASMAFLCPNVNSYRRFGSQFYVPNAPSWGLDNRTVALRVPTGSPDAVRLEHRVAGADANPYLLLASVLAGVHHGLTNKVEPGAPIEGNSYEQLEPSLPNNLRDALRELDDSEILAKYIDPKYIDIFVACKESELEEFEYSISDLEYNWYLHTV | not soluble |
| MQIDDALLQRLEKLSMLEIKDEHKESVKGHLAEVLGFVENIFALETSALKTDIELCTPLREDEPKSQPNTAKEILSQNKHSQDHYFVVPKIIE | not soluble |
